Laboratory results taken from patent US20180222992A1 (Hoffmann-La Roche, published 2018).

Key:
A-beta = A-beta (human); assay: cell-based or functional assay
A-beta peptide (1-40) [1] = molecular target: T1, A-beta peptide (1-40) (human); assay: BIAcore; after 14 days, pH 7.4, 37° C., PBS buffer, relative to untreated control
T1 construct: also called Aβ(1-40); Aβ40
Method: (§1) After incubation ended, samples were analyzed for relative active concentration (BIAcore), aggregation (SEC) and fragmentation (capillary electrophoresis or SDS-PAGE) and compared with the untreated control.

[2] = molecular target: T2, human transferrin receptor (human, UniProt P02786 89-760); assay: as above
T2 construct: also called human TfR; Recombinant His6-tagged human transferrin receptor (R&D systems, cat. no 2474-TR-050)
Method: as §1

A-beta peptide (1-40) [3] = molecular target: T1, A-beta peptide (1-40); assay: BIAcore; after 14 days, pH 6.0, 40° C., His/NaCl buffer, relative to untreated control
Method: as §1

[4] = molecular target: T2, human transferrin receptor; assay: as above
Method: as §1

T2 sequence (P02786 89-760 limits assumed): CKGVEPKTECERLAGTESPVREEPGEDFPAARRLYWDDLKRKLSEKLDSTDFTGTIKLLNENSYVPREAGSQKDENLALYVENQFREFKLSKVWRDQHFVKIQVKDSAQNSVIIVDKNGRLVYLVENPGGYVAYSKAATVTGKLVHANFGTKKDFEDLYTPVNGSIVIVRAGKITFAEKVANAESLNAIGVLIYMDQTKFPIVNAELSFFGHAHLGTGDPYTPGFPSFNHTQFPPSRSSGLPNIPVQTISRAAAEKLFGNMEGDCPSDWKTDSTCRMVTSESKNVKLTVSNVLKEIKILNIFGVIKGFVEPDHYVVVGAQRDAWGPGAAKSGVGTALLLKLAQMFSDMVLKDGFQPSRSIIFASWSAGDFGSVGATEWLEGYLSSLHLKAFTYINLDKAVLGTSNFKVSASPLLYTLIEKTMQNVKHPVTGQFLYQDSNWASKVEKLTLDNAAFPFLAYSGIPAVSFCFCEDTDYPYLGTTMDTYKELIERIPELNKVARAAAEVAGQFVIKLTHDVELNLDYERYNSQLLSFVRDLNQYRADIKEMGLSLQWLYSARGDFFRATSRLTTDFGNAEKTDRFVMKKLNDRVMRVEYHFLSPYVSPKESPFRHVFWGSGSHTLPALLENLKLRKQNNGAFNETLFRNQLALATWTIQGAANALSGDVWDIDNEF

Binder	IL-8 [ng/ml], U937-cell assay (A-beta) [ng/mL]	IP-10 [ng/ml], U937-cell assay (A-beta) [ng/mL]	relative A-beta peptide (1-40) binding by BIAcore (A-beta peptide (1-40) [1]) [%]	relative human transferrin receptor binding by BIAcore [2] [%]	relative A-beta peptide (1-40) binding by BIAcore (A-beta peptide (1-40) [3]) [%]	relative human transferrin receptor binding by BIAcore [4] [%]
Antibody 0012 (bispecific antibody, human IgG1, kappa, knob-into-hole; The anti-A-beta light chain occurs twice) chain 1: DIVLTQSPATLSLSPGERATLSCRASQSVSSSYLAWYQQKPGQAPRLLIYGASSRATGVPARFSGSGSGTDFTLTISSLEPEDFATYYCLQIYNMPITFGQGTKVEIKRTVAAPSVFIFPPSDRKLKSGTASVVCLLNNFYPREAKVQWKVDNALQSGNSQESVTEQDSKDSTYSLSSTLTLSKADYEKHKVYACEVTHQGLSSPVTKSFNRGEC chain 2: not shown chain 3: QSMQESGPGLVKPSQTLSLTCTVSGFSLSSYAMSWIRQHPGKGLEWIGYIWSGGSTDYASWAKSRVTISKTSTTVSLKLSSVTAADTAVYYCARRYGTSYPDYGDASGFDPWGQGTLVTVSSASVAAPSVFIFPPSDEQLKSGTASVVCLLNNFYPREAKVQWKVDNALQSGNSQESVTEQDSKDSTYSLSSTLTLSKADYEKHKVYACEVTHQGLSSPVTKSFNRGEC chain 4: not shown	7	5.3	82	78	87	101
Antibody 0015 (bispecific antibody, knob-into-hole) light 1: DIVLTQSPATLSLSPGERATLSCRASQSVSSSYLAWYQQKPGQAPRLLIYGASSRATGVPARFSGSGSGTDFTLTISSLEPEDFATYYCLQIYNMPITFGQGTKVEIKRTVAAPSVFIFPPSDRKLKSGTASVVCLLNNFYPREAKVQWKVDNALQSGNSQESVTEQDSKDSTYSLSSTLTLSKADYEKHKVYACEVTHQGLSSPVTKSFNRGEC heavy 1: not shown light 2: AIQLTQSPSSLSASVGDRVTITCRASQSISSYLAWYQQKPGKAPKLLIYRASTLASGVPSRFSGSGSGTDFTLTISSLQPEDFATYYCQQNYASSNVDNTFGGGTKVEIKSSASTKGPSVFPLAPSSKSTSGGTAALGCLVKDYFPEPVTVSWNSGALTSGVHTFPAVLQSSGLYSLSSVVTVPSSSLGTQTYICNVNHKPSNTKVDKKVEPKSC heavy 2: not shown		5	86	85	96	91
Antibody 0020 (bispecific antibody, human IgG1, kappa) chain 1: DIVLTQSPATLSLSPGERATLSCRASQSVSSSYLAWYQQKPGQAPRLLIYGASSRATGVPARFSGSGSGTDFTLTISSLEPEDFATYYCLQIYNMPITFGQGTKVEIKRTVAAPSVFIFPPSDRKLKSGTASVVCLLNNFYPREAKVQWKVDNALQSGNSQESVTEQDSKDSTYSLSSTLTLSKADYEKHKVYACEVTHQGLSSPVTKSFNRGEC chain 2: not shown chain 3: not shown	7	4.5				
Antibody 0024 (bispecific antibody, human IgG1, kappa, knob-into-hole; The anti-A-beta light chain occurs twice) chain 1: not shown chain 2: not shown chain 3: AIQLTQSPSSLSASVGDRVTITCRASQSISSYLAWYQQKPGKAPKLLIYRASTLASGVPSRFSGSGSGTDFTLTISSLQPEDFATYYCQQNYASSNVDNTFGGGTKVEIKSSASTKGPSVFPLAPSSKSTSGGTAALGCLVKDYFPEPVTVSWNSGALTSGVHTFPAVLQSSGLYSLSSVVTVPSSSLGTQTYICNVNHKPSNTKVDKKVEPKSC chain 4: not shown	8	5.2	101	90	97	93
